Target: T1, glycosyltransferase EryCIII (UniProt A4F7P3 1-421)
T1 construct: EryCIII, glycosyltransferase that attaches TDP-D-desosamine to 3-alpha-mycarosylerythronolide B in erythromycin D biosynthesis; printed mass 48.1 kDa (47,961 Da measured, loss of the N-terminal methionine); Se-Met-labelled protein was used for phasing; also called GT EryCIII; source: E. coli BL21 (DE3) codon plus RP, co-expressed with the S. coelicolor chaperonins GroEL1, GroES and GroEL2, …
T1 sequence (looked up): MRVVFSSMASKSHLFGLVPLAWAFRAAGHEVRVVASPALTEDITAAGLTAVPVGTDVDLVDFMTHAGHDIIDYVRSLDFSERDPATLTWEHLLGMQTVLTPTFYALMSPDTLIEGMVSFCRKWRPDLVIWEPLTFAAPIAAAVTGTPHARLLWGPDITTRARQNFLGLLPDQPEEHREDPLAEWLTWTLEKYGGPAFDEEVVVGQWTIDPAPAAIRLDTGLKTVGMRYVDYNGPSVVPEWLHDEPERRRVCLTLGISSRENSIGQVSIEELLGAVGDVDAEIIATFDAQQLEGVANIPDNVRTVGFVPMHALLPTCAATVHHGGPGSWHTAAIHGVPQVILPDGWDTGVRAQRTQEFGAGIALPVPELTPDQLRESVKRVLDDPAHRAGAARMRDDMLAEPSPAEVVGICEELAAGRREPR
Assay: AUC; sedimentation velocity of the co-expressed, co-purified EryCIII·EryCII complex in 2 mM DTT, 293 K, 50,000 r.p.m.; c(S) and c(M) analysis, taken together with band intensities on a denaturing polyacrylamide gel
Details: both partners purified

- stoichiometry N: 1
B1: EryCII, activating P450 homologue (auxiliary protein) of EryCIII (natural protein)
chain: MTTTDRAGLGRQLQMIRGLHWGYGSNGDPYPMLLCGHDDDPQRRYRSMRESGVRRSRTETWVVADHATARQVLDDPAFTRATGRTPEWMRAAGAPPAEWAQPFRDVHAASWEGEVPDVGELAESFAGLLPGAGARLDLVGDFAWQVPVQGMTAVLGAAGVLRGAAWDARVSLDAQLSPQQLAVTEAAVAALPADPALRALFAGAEMTANTVVDAVLAVSAEPGLAERIADDPAAAQRTVAEVLRLHPALHLERRTATAEVRLGEHVIGEGEEVVVVVAAANRDPEVFAEPDRLDVDRPDADRALSAHRGHPGRLEELVTALATAALRAAAKALPGLTPSGPVVRRRRSPVLRGTNRCPVEL
notes: printed mass 40.7 kDa; also called helper protein

Reference: PMC3391682, “Structure of the Glycosyltransferase EryCIII in Complex with its Activating P450 Homologue EryCII” (Journal of Molecular Biology, 2012)
